Measurements: patent US20250076311A1 (Chugai, published 2025)
Where a chain is given by its changes, count along the chain named. Values belong to the binder of their own block, whether it stands above or below them.

Legend:
[1] = biological target: T1, cynomolgus monkey FcγRIIIaS extracellular domain with C-terminal His-tag (cynomolgus monkey, UniProt A3RFZ7 21-206 (rhesus entry)); experiment: SPR (BIACORE); KD of SG1 / KD of variant
T1 construct: also called cyno FcgRIIIaS; cynoFcγRIIIaS; not shown: His-tag added to the C-terminus
Experimental: (§1) The kinetic analysis of interactions between these antibodies and FcγR was carried out using BIACORE® T200 or BIACORE® 4000 (GE Healthcare). HBS-EP+ (GE Healthcare) was used as the running buffer, and the measurement temperature was set to 25° C. […] After the measurement, the antibody captured on the chip was washed off by allowing reaction with 10 mM glycine-HCl, pH1.5 and 25 mM NaOH so that the chip was regenerated and used repeatedly. The sensorgrams obtained as measurement results were analyzed by the 1:1 Langmuir binding model using the BIACORE® Evaluation Software to calculate the binding rate constant ka (L/mol/s) and dissociation rate constant kd (1/s), and the dissociation constant KD (mol/L) was calculated from these values. […] Regarding such interactions, KD values were calculated using the following 1:1 binding model described in BIACORE® T100 Software Handbook BR1006-48 Edition AE.

[2] = biological target: T2, human FcγRIIIaV extracellular domain with C-terminal His-tag (human, UniProt P08637 17-208); experiment: SPR (BIACORE), antibody captured, FcgR analyte
T2 construct: also called human FcgRIIIaV; not shown: His-tag added to the C-terminus
T2 sequence (P08637 17-208 F176V): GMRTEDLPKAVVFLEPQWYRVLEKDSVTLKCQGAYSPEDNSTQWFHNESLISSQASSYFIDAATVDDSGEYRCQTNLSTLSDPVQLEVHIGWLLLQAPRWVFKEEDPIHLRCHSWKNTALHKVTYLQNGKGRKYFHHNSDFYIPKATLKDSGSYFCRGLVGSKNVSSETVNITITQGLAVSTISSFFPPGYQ

[3] = biological target: T1, cynomolgus monkey FcγRIIIaS …; experiment: SPR (BIACORE), antibody captured, FcgR analyte
[4] = biological target: T3, human FcγRIIaH extracellular domain with C-terminal His-tag (human, UniProt P12318 34-217); experiment: SPR (BIACORE), antibody captured, FcgR analyte
T3 construct: also called human FcgRIIaH; FcγRIIa type H; not shown: His-tag added to the C-terminus
T3 sequence: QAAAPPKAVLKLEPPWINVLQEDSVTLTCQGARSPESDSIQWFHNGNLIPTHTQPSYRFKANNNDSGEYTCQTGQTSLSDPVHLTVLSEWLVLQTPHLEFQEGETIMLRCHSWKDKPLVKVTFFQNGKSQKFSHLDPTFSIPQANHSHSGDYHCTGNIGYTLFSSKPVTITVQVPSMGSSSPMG

[5] = biological target: T4, cynomolgus monkey FcγRIIIaS extracellular domain with C-terminal His-tag (cynomolgus monkey, UniProt A3RFZ7 21-206 (rhesus entry)); experiment: SPR Biacore, antibody captured, FcgR analyte
T4 construct: also called cyno FcgRIIIaS; cynoFcγRIIIaS; not shown: His-tag added to C-terminus

[6] = biological target: T5, cynomolgus monkey FcγRIIa3 extracellular domain with C-terminal His-tag (cynomolgus monkey); experiment: SPR Biacore, antibody captured, FcgR analyte
T5 construct: also called cyno FcgRIIa3; cynoFcγRIIa3; not shown: His-tag added to C-terminus
T5 chain: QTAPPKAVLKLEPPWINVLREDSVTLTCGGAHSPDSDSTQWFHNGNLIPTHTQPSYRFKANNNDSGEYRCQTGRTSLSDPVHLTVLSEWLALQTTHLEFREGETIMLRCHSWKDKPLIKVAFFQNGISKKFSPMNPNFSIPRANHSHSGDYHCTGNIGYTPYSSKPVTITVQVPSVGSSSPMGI

[7] = biological target: T6, cynomolgus monkey FcγRIIa2 extracellular domain with C-terminal His-tag (cynomolgus monkey); experiment: SPR Biacore, antibody captured, FcgR analyte
T6 construct: also called cyno FcgRIIa2; cynoFcγRIIa2; not shown: His-tag added to C-terminus
T6 chain: T5 chain with I127K, K130N, P133H, R142Q

[8] = biological target: T7, human FcγRIIIaV extracellular domain with C-terminal His-tag (human, UniProt P08637 17-208); experiment: SPR Biacore, antibody captured, FcgR analyte
T7 construct: also called human FcgRIIIaV; not shown: His-tag added to C-terminus
T7 sequence (P08637 17-208 F176V): as the sequence (P08637 17-208 F176V) above

[9] = biological target: T8, cynomolgus monkey FcγRIIIaS extracellular domain, His-tagged (cynomolgus monkey, UniProt Q8SPW2 21-206 at identity 1.00)); experiment: SPR (BIACORE), antibody captured, FcγR analyte, 25 C; KD of SG1 divided by KD of variant
T8 construct: also called cyno FcγRIIIaS; cynoFcgRIIIaS
T8 chain: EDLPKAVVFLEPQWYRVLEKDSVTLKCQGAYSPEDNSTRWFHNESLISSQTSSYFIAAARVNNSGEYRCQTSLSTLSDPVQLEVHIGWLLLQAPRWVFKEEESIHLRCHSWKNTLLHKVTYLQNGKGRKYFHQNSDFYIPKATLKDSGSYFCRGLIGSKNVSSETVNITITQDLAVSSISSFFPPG
Experimental: as §1

[10] = biological target: T9, human FcγRIIaR extracellular domain with C-terminal His-tag (human, UniProt P12318 34-217); experiment: SPR (BIACORE), antibody captured, FcgR analyte
T9 construct: also called human FcgRIIaR; FcγRIIa type R; not shown: His-tag added to the C-terminus
T9 chain: T3 sequence with H134R

[11] = biological target: T10, cynomolgus monkey FcγRIIa3 extracellular domain with C-terminal His-tag (cynomolgus monkey); experiment: SPR (BIACORE), antibody captured, FcgR analyte
T10 construct: also called cyno FcgRIIa3; cynoFcγRIIa3; not shown: His-tag added to the C-terminus
T10 chain: T5 chain

[12] = biological target: T11, human FcγRIIb extracellular domain with C-terminal His-tag (human, UniProt P31994 43-217); experiment: SPR (BIACORE), antibody captured, FcgR analyte
T11 construct: also called human FcgRIIb; not shown: His-tag added to the C-terminus
T11 sequence: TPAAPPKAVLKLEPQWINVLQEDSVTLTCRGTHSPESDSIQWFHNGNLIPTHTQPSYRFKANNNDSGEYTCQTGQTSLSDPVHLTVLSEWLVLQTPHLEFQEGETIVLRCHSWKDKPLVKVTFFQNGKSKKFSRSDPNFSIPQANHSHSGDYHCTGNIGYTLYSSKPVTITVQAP

[13] = biological target: T12, human FcγRIIb extracellular domain with C-terminal His-tag (human, UniProt P31994 43-217); experiment: SPR Biacore, antibody captured, FcgR analyte
T12 construct: also called human FcgRIIb; not shown: His-tag added to C-terminus
T12 sequence: T11 sequence

[14] = biological target: T13, cynomolgus monkey FcγRIIb extracellular domain with C-terminal His-tag (cynomolgus monkey); experiment: SPR Biacore, antibody captured, FcgR analyte
T13 construct: also called cyno FcgRIIb; cynoFcγRIIb; not shown: His-tag added to C-terminus
T13 chain: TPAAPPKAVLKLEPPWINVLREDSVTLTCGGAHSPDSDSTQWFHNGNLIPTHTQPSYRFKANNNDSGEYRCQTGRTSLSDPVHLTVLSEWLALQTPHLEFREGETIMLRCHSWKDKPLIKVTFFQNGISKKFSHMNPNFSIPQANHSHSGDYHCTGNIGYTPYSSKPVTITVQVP

B1: M103205H795-MY051/M103202L889-SK1 (antibody, human IgG1, kappa, name in EU numbering)
heavy: QVTLKESGPVLVKPTETLTLTCTVSGIDLSHDDISWVRQAPGKGLEWVGIISYAGSTYYASWAKGRLTISKDTSKNQVVLTMTNMDPVDTATYYCARGVPAYSHGGDLWGQGTLVTVSSASTKGPSVFPLAPSSKSTSGGTAALGCLVKDYFPEPVTVSWNSGALTSGVHTFPAVLQSSGLYSLSSVVTVPSSSLGTQTYICNVNHKPSNTKVDKKVEPKSCDKTHTCPPCPAPELLNGPSVFLFPPKPKDTLMISRTPEVTCVVVDVSEEDGEVKFNWYVDGVEVHNAKTKPREEQYNSTYRVVSVLTVLHQDWLNGKEYKCKVSNKALPAPIEKTISKAKGQPREPQVYTLPPSREEMTKNQVSLTCLVKGFYPSDIAVEWESNGQPENNYKTTPPVLDSDGSFFLYSKLTVDKSRWQQGNVFSCSVMHEALHNHYTQKSLSLSP
light: DIVMTQSPATLSLSPGERATLSCTSSQSVYHANWLSWFQQKPGQPPKLLIYWASTLAYGVPSRFSGSGSGTDFTLTISSLQPEDAATYYCAGGYGGGRYAFGQGTKVEIKRTVAAPSVFIFPPSDEQLKSGTASVVCLLNNFYPREAKVQWKVDNALQSGNSQESVTEQDSKDSTYSLSSTLTLSKADYEKHKVYACEVTHQGLSSPVTKSFNRGEC
notes: Fc variant of MS1032LO06-SG1; positions in EU numbering
KD fold (SG1 = 1) [1]: 0.17 fold
Kd [2]: 7400 nM
Kd [3]: 2100 nM
Kd [4]: 2200 nM

B2: M103205H795-MY211/M103202L889-SK1 (antibody, human IgG1, kappa, name in EU numbering)
heavy: B1 heavy with S241V, E270D, G273P, K328T, A332K
light: B1 light
notes: substitutions in EU numbering, introduced into M103205H795-SG1
KD fold (SG1 = 1) [5]: 0.17 fold
KD fold (SG1 = 1) [6]: 6.5 fold
KD fold (SG1 = 1) [7]: 8.8 fold

B3: M103205H795-MY200/M103202L889-SK1 (antibody)
heavy: B1 heavy with S241V, G273P, A332K
light: B1 light
KD fold (SG1 = 1) [8]: 0.09 fold
KD fold (SG1 = 1) [5]: 0.08 fold

B6: M103205H795-MY212/M103202L889-SK1 (antibody, human IgG1, kappa, name in EU numbering)
heavy: B1 heavy with S241V, E270D, G273P, Q297L, K328T, A332K
light: B1 light
notes: as for B2
KD fold (SG1 = 1) [13]: 7.5 fold
KD fold (SG1 = 1) [8]: 0.17 fold
KD fold (SG1 = 1) [5]: 0.14 fold

B7: M103205H795-MY184/M103202L889-SK1 (antibody, human IgG1, kappa, name in EU numbering)
heavy: B1 heavy with G273P, P398Y
light: B1 light
notes: EU numbering
KD fold (SG1 = 1) [13]: 4.7 fold
Kd [14]: 900 nM
KD fold (SG1 = 1) [5]: 0.11 fold
Kd [5]: 3300 nM
KD fold (SG1 = 1) [7]: 2.8 fold

B8: M103205H795-MY447/M103202L889-SK1 (antibody, human IgG1, kappa, name in EU numbering)
heavy: B1 heavy with P234I, N238T, E270D, G273P, A332K
light: B1 light
KD fold (SG1 = 1) [9]: 0.3 fold

B10: M103205H795-MY204/M103202L889-SK1 (antibody, human IgG1, kappa, name in EU numbering)
heavy: B1 heavy with S241V, G273P, Q297L, A332K
light: B1 light
notes: as for B1
Kd [12]: 1500 nM
Kd [2]: 11000 nM
Kd [3]: 3500 nM

B11: M103205H795-MY182/M103202L889-SK1 (antibody, human IgG1, kappa, name in EU numbering)
heavy: B1 heavy with G273P, P398V
light: B1 light
notes: EU numbering
KD fold (SG1 = 1) [8]: 0.17 fold
KD fold (SG1 = 1) [5]: 0.1 fold
Kd [5]: 3600 nM

The next lines start with the values.

KD fold (SG1 = 1) [9]: 0.2 fold
B4: M103205H795-MY451/M103202L889-SK1 (antibody, human IgG1, kappa, name in EU numbering)
heavy: B1 heavy with P234N, N238T, E270D, G273P, A332K
light: B1 light

Kd [10]: 2100 nM
Kd [11]: 6700 nM
Kd [12]: 1100 nM
Kd [3]: 28 nM
Kd [4]: 830 nM
B5: M103205H795-MY208/M103202L889-SK1 (antibody, human IgG1, kappa, name in EU numbering)
heavy: B1 heavy with E270D, G273P, Q297L
light: B1 light
notes: as for B1

KD fold (SG1 = 1) [1]: 0.42 fold
Kd [11]: 7600 nM
Kd [12]: 320 nM
Kd [3]: 850 nM
B9: M103205H795-MY115/M103202L889-SK1 (antibody, human IgG1, kappa, name in EU numbering)
heavy: B1 heavy with S269A, G273P, P398M
light: B1 light
notes: as for B1

Kd [11]: 6900 nM
Kd [12]: 1500 nM
Kd [3]: 4100 nM
Kd [4]: 1300 nM
B12: M103205H795-MY207/M103202L889-SK1 (antibody, human IgG1, kappa, name in EU numbering)
heavy: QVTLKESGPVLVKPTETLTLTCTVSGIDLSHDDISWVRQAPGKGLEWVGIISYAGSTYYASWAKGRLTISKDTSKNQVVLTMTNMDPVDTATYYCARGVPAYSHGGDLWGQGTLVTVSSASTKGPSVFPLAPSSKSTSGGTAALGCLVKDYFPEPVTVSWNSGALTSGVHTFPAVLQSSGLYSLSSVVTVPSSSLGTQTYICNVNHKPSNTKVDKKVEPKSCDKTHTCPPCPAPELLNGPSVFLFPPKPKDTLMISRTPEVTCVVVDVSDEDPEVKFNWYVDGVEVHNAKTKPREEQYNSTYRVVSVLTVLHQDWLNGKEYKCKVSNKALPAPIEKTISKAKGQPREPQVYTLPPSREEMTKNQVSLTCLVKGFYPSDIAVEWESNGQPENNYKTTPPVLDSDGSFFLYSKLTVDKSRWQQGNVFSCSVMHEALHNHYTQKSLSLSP
light: B1 light
notes: as for B1

KD fold (SG1 = 1) [8]: 0.09 fold
B13: M103205H795-MY209/M103202L889-SK1 (antibody, human IgG1, kappa, name in EU numbering)
heavy: B1 heavy with E270D, G273P, Q297L, K328T, A332K
light: B1 light
notes: as for B2
